# Assay: yeast display, Sf9 membrane polyspecificity reagent, FACS + sequencing; frameworks hold sequencing errors
# In short: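 A nanobody's polyreactivity label depends on the gate it was sorted from. Yeast display cells were stained with 10% biotinylated, detergent-solubilized Sf9 membrane reagent for 1 hour at 4 °C, enriched on streptavidin microbeads and sorted by FACS. The low and high (top ~1%) gates were set on anti-HA fluorescence for expression and streptavidin fluorescence for reagent binding.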
row,Sequence,polyreactivity (PSR sort gate)
1,QVQLVESGGGLVQAGGSLRLSCAASGSTFESNAMGWYRQAPGKERELVASISGSGGSTFYADSVKGRFTISRDNAKNTVYLQMNSLKPEDTAVYYCNRGRDEYDYWGQGTQVTVSS,low polyreactivity
2,QVQLVESGGGLVQAGGSLRLSCAASGFTFWYYAMGWYRQAPGKERELVARITSRGADTYADSVKGRFTISRDNAKNTVYLQMNSLKPEDTAVYDCNADIISVSVYYFIVEYDYWGQGTQVTVSS,low polyreactivity
3,QVQLVESGGGLVQAGGSLRLSCAASGSTLRRYAMGWSRQAPGKERELVAAISGSGDSTYYADSVKGRFTISRDNAKNTVYLQMNSLKPEDTAVYYCNAVYAFNGYDYWGQGTQVTVSS,low polyreactivity
4,QVQLVESGGGLVQAGGSLRLTCAASGRTFVENAMGWYRPATGKERELVAAITYSGGGTYYADSVKGRFTISRDNAKNTVYLQMNSVKPEDTAVYDCAATIPYSLDGYDYWGQGTQVTVSS,low polyreactivity
5,QVQLVESGGGLVQAGGSLRLSCAASGGTFSTNAMGWYRQAPGNERELVAAISLSGGRTDADSVKGRFTISRDNAKNTVYLQMNSLKPEDTAVYYCNADSAGITRARSELDYWGQGTQVTVSS,low polyreactivity
6,QVQLGESGGGLVQAGGSLRLSCAASGYIFRVYAMGWYIQARGKERDFVAAITRGGRTNYADSVKGRFTISRDNAKNTVYLQMNSLKQEDTAVYYCAASFSAIRGGVRVTIDYYWGQGTQVTVSS,high polyreactivity
7,QVQLVESGGCLVQAGGSLRLSCAASGFTIWPNAMGWYRQAPGKERELVAAINWSGGATYYADSVKGRFTISRDNAKNSVYLHMNSLKPEDTAVYYCAAFSYDWYGGDEYWGKGTQVTVSS,low polyreactivity
8,QVQLVESGGGLVQAGGSLRLSCAASGRTFYVNTMGWYRQATGKETELVARITRGGSTYYADSVKGRFTISRDNAKNTVYLQMNSLKPEDTAVYYCATDHFPVYSTHVIYEFDYWGQGTQVTVSS,low polyreactivity
9,QVQLVESGGGLVQAGGSLRLSCAASGSILDNYGMGWYRQAPGKERELVASISGGAGSPNYADSVKGRFTISRDNAKNTVYLQMYSLKPEVTAVYDCNADQIFGPALNLWKLDYWGQGNQVTVSS,low polyreactivity
10,QDQRVESGGGLVQAGGSLRLSCAASGRIFGTYTMGWYRQAPGKERELVAAITTGGITNYADSVKGRFTISRDNAKNTVYLQMYSLKPEDTAVYYCNARWDYGAYEYWGQGTQVTVSS,low polyreactivity
11,QVQLVESGGGLVQAGGSLRLSCAASGRTFLSYMGWYRQAPGKERELVAISRYGTSTYYADSVKGRFTISRDNAKNTVYLQMNSLKPEDTAVFYCAAEVLRDGWWGYYYWGQGTQVTVSS,high polyreactivity
12,QVQLVESGGGLVQAGGILRLSCDASGSIFVYNAMGWYRQAPGKERELVAGITFIGGSTYYADSVKGRFTISRDNAKNTVYLQMNSLKPEDTAVYYCNADVAPGIFYGYDSWGQGTQVTVSS,low polyreactivity
13,QVQLVESGGGLVQAGGSLRLSCAASGSTFFRYSMGWYRQAPGKEREFVAAISKRGGSTHYADSVKGRFTITRDNAKNTVYLQMNSLKPEDTAVYYCAASSFNSSYNYWGQGTQVTVSS,high polyreactivity
14,QVQLVESGGGLVQAGGSLRLICAASGSIFGRYAMGWYRQAPGKERELVAAITGSGGTTYYADSVKGRFTISRDNAKNTVYLQMNSLKPEDTAVYYCAADPQVYYSGRPRYDYWGQGTQVTVSS,high polyreactivity
15,QVQLVESGGGLVQAGCSLRLSCAASGSTFRSYAMGWYRQAPGKERELVASISGDGDSTYYADSVKGRFTISRDNAKNTVYLQMNSLKPEDTAVYYCNKGLHNGEVDYDYWGQGTQVTVSS,low polyreactivity
16,QVQLVESGGGLFQAGGSLRLSCAASGSIFRAYAMVWYRQAPGKERELVAAITRGGSTNYADSVKGRFTISRDNAKNTVYLQMNSLKPEDTAVYYCAAQNYWYYPRRFDYWGQGTQVTVSS,high polyreactivity

row,Sequence,polyreactivity (PSR sort gate)
1,QVHLVESGGGLVQAGGSLRLSCAASGSIFLRYAMGWYRKAPGKERVLFAGITSSGGSTYYADSVQGRFTISRDNAKNTVYLQMNSLKPEDTAVYYCARGLYRIYSPVRYGYWGQGTQVTVSS,high polyreactivity
2,QVQLVESGGGLVQAGGRLRLSCAASGRIFPYYAMGWYRQAPGKEREFVAAITSSGGSTYYADSVKGRFTISRDNAKYTVYLQMNSLIPEDSAVYYCFAVRHFGLYAGRPYDYWGQGTQVTVSS,low polyreactivity
3,QVQLVESGGGLVQAGGSLRLSCAASGFILSHYVMGWYRPAPGKERELVATIRNVGSTKYADSVKGRFTISRDNAKNTVYLQMNSLKPEDTAVYYCNARRWEGYYEFNYWGQGTQVTVSS,low polyreactivity
4,QVQLVVSGGVLVQAGGSLRLSCAASGRTFASYTMGWYIQAAGKERELVAAISRGGNTYYADSVKGRFTISRDIAKNTVYLQMNSLKPDDTAVYYCAATAVKYDRRFYYWGQGTQVTVSS,high polyreactivity
5,QVQLVESAGGLVQAGGSLRLSCAASGSNFKYYAMGWYRQAPGKERELVAAINGSGGSTYYADSVKGRFTISRDNAKNTVYLQMNSLKPEDTAVYYCARASDYNKVSKSQRMDYWGQGTQVTVSS,high polyreactivity
6,QVQLVESGGGLVQAGGSLRLSCAASGSTFYTYAMGWYRKAPGKERELDAAISWSGGSTYYADSVKGRFTISRDNAKNTVYLQMNSLKPEDTAVYYCAADRPYAGRYWKGYHSALYDYWGQGTQVTVSS,low polyreactivity
7,QVQLVESGGGLVQAGGSLRLSCADSGRIFGTSAMGWYRQAPGKERELVATISYSSGRTYYADSVKGRFTISRDNAKNTVYLQMNSLKPEDTAVYYCARRRRSGSRQYYYWGQGTQVTVSS,high polyreactivity
8,QVQLVESGGGLVQAGGSLRLSCAASGSTFDWYTMGWYRQATGKERELVADITSGGSTYYADSVKGRFTISRDNAKNTVYLQMNSLKPEDTAAYYCNAYLYTWRWAFDYWGQGTQVTVSS,high polyreactivity
9,QVQLVESGGGLVQAGGSLRLSCAASGSTFSVYAMGWYRQAPGKERELVASISSSVGRTFYADSVKGRFTISRDNAKNTVYLQMNSLKPEDTAVYYCAARSYQVKEYDHWGQGTQVTVSS,high polyreactivity
10,QVQLVDSGGGLVQAGGSLRLSCAASGFTFWRYVMGWYRQAPGKERELVAAISGRGSRTFYADSVKGRFTISRDNAKNTVYLQMNSLKPEDTAVYYCNAYPGTSGTLYVTPYDYWGQGSQVTVSS,high polyreactivity
11,QVQLVESGGGLVQAGGSLRLSCAASGSIFYYYAMGWYRQAPGKERELVASITSGGRTYYADSVKGRFTISRDNAKNTVYFQMNSLKPEDTAVYYCAAVYGGLTLTRNYYWGQGTQVTVSS,high polyreactivity
12,QVQLVESGGGLVQAGGSLRLSCAASGRIFWYYAMGWYRQAPGKERELVAAITRSGASTYYADSVKGRFTISRDNAKNTVYLQMNSLKREDTAVYYCAADTGRYRYVYEYYYWGLGTQVTVSS,high polyreactivity
13,QVQLVESGGGLVQAGGSLRLICAASVSIFKAYAMGWYRQAPGKEMELVARIRYRGGSTYYADSVKGRFTISRDNAKNTVYLQMNSLKPEDTAVYYCAARFSPYHTDRGDYWGQGTQVTVSS,high polyreactivity
14,QVQLVESGGGLVQAGCSLRLSCAASGRIFYTYAMGWYRQAPAKEREFVAGIRWSGSSTYYADSVMGRFRISRDNAKYTVYFQMLSMKPEDTAVYYCAKRYVWGDKRYWQGYDYWGQGNQVTVSS,high polyreactivity
15,QVQLQESGGGLVQAGGSLRLTCAASGSIYDDTYMGCYRQAPGKERELVATIDSGSTTNYADSVKGRITIRRDNAKNTVYLQMNSLKPEDTAVYFCGAADSHIDYFDYWGQGTQVTVSS,low polyreactivity
16,QVQLVESGGGLVQAGGSLRLSCAASGSTFGVNVMGWYRQAPGKERELVAAISRSGGRTYYADSVKGRFTISRDNAKNTVYLQMNSLKPEDTAVYYCNTRGYDYWGQGTQVTVSS,high polyreactivity

# Reference: the nanobody polyreactivity screen of Harvey et al. (2022)
